Data reported in paper PMC8469222, “First Dye-Decolorizing Peroxidase from an Ascomycetous Fungus Secreted by Xylaria grammica” (Biomolecules, 2021).

T1: XgrDyP (Xylaria grammica, UniProt A0A439DJS1)
T1 construct: gene EKO27_g488; wild-type, natively secreted, purified from Xylaria grammica culture liquid (AEX, SEC, MonoQ); 49 kDa on SDS-PAGE; heme protein
T1 sequence (A0A439DJS1 1-493): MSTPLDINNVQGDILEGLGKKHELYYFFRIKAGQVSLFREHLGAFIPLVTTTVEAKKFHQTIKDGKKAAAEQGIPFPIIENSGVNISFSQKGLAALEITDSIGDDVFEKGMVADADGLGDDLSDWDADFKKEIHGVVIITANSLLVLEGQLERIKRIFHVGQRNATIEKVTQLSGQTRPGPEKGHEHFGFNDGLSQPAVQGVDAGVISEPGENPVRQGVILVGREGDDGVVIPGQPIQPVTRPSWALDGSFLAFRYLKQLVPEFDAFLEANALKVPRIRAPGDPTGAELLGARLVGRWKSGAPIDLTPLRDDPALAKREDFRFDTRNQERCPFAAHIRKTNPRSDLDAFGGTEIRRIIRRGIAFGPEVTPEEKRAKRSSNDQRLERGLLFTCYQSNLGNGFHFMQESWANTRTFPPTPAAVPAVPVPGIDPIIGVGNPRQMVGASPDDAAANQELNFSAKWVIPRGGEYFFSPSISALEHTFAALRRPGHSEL


Tests used:
XgrDyP = molecular target: T1, XgrDyP; assay: spectrophotometric decolorization at […] nm, Lineweaver-Burk; assay type: biochemical; conditions: apparent; 50 mM sodium citrate pH 4.5, H2O2 co-substrate held constant, room temperature
purified protein [1] = substrate: CCn1c(=NN=c2sc3cc(S(=O)(=O)O)ccc3n2CC)sc2cc(S(=O)(=O)O)ccc21; assay: purified protein; assay type: biochemical, Xylaria grammica; conditions: apparent, 50 mM sodium citrate pH 4.5, H2O2 co-substrate held constant, room temperature
purified protein [2] = substrate: COc1cccc(OC)c1O; assay: purified protein; assay type: biochemical, Xylaria grammica; conditions: apparent, 50 mM sodium citrate pH 4.5, H2O2 co-substrate held constant, room temperature

Row | Km (XgrDyP) [µM] | Molecule | Km (purified protein [1]) [µM] | kcat (purified protein [1]) [s⁻¹] | kcat/Km (purified protein [1]) [M⁻¹ s⁻¹] | Km (purified protein [2]) [µM] | kcat (purified protein [2]) [s⁻¹] | kcat/Km (purified protein [2]) [M⁻¹ s⁻¹]
1 | 41 | Nc1c(S(=O)(=O)O)cc(Nc2ccc(S(=O)(=O)O)c(Nc3nc(Cl)nc(Nc4cccc(S(=O)(=O)O)c4)n3)c2)c2c1C(=O)c1ccccc1C2=O [RBlue5] | – | – | – | – | – | –
2 | – | XgrDyP (Xylaria grammica) (protein, wild-type, natively secreted, purified from Xylaria grammica culture liquid (AEX, SEC, MonoQ); 49 kDa on SDS-PAGE; heme protein) MSTPLDINNVQGDILEGLGKKHELYYFFRIKAGQVSLFREHLGAFIPLVTTTVEAKKFHQTIKDGKKAAAEQGIPFPIIENSGVNISFSQKGLAALEITDSIGDDVFEKGMVADADGLGDDLSDWDADFKKEIHGVVIITANSLLVLEGQLERIKRIFHVGQRNATIEKVTQLSGQTRPGPEKGHEHFGFNDGLSQPAVQGVDAGVISEPGENPVRQGVILVGREGDDGVVIPGQPIQPVTRPSWALDGSFLAFRYLKQLVPEFDAFLEANALKVPRIRAPGDPTGAELLGARLVGRWKSGAPIDLTPLRDDPALAKREDFRFDTRNQERCPFAAHIRKTNPRSDLDAFGGTEIRRIIRRGIAFGPEVTPEEKRAKRSSNDQRLERGLLFTCYQSNLGNGFHFMQESWANTRTFPPTPAAVPAVPVPGIDPIIGVGNPRQMVGASPDDAAANQELNFSAKWVIPRGGEYFFSPSISALEHTFAALRRPGHSEL | 41 | 12 | 287000 | 12 | 29 | 2.5e+06
